Reference: patent US20050282743A1, “Molecular interactions in cells” (Arbor Vita Corporation, priority 2001, published 2005)
Blank lines part the entries; values can stand above or below the binder they belong to.

Key:
[1] = target: T1, GST-KIAA1719 PDZ domain 3 (Homo sapiens (Human)), Q9C0E4; experiment: G' assay; note: key of the grades not given here
T1 chain: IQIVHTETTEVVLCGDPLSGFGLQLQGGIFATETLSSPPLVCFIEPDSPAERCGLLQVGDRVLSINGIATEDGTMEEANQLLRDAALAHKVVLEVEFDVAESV

[2] = target: T2, GST-KIAA0973 PDZ domain 1 (Homo sapiens (Human)), Q9Y2H9; experiment: G' assay; note: key of the grades not given here
T2 chain: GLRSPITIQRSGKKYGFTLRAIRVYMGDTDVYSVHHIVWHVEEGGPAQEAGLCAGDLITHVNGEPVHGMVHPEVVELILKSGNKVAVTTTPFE

[3] = target: T3, GST-GRIP 1 PDZ domain 5 (Homo sapiens (Human)), Q9Y3R0; experiment: G' assay; note: key of the grades not given here
T3 chain: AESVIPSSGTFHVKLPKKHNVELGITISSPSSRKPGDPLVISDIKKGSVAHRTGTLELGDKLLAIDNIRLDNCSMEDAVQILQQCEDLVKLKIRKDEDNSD

[4] = target: T4, GST-PTPL1 PDZ domain 5 (Homo sapiens (Human)), Q12923; experiment: G' assay; note: key of the grades not given here
T4 chain: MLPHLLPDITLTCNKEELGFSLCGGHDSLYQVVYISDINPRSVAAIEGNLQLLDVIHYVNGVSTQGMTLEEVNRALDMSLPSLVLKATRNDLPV

[5] = target: T5, GST-MINT1 PDZ domain 2 (Mus musculus (Mouse)), B2RUJ5; experiment: G' assay; note: key of the grades not given here
T5 chain: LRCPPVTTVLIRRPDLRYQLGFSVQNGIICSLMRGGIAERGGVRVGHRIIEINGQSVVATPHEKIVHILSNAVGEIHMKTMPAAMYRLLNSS

[6] = target: T6, GST-APXL-1 PDZ domain 1 (Homo sapiens (Human)), Q13796; experiment: G' assay; note: key of the grades not given here
T6 chain: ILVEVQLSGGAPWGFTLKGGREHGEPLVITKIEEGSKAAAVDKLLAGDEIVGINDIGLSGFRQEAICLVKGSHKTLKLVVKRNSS

[7] = target: GST-CARD14 PDZ domain 1 (Homo sapiens (Human)), Q9BXL6; experiment: G' assay; note: key of the grades not given here
Chain of GST-CARD14 PDZ domain 1 (Homo sapiens (Human)), Q9BXL6 (Q9BXL6 565-664): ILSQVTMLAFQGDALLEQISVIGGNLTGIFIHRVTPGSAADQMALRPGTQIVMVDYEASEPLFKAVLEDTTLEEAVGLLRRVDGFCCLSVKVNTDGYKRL

[8] = target: T7, GST-MUPP1 PDZ domain 4 (Homo sapiens (Human)), O75970; experiment: G' assay; note: key of the grades not given here
T7 chain: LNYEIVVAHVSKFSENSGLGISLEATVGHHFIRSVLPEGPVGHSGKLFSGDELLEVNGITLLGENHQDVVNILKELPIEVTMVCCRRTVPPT

[9] = target: T8, GST-LU-1 PDZ domain 1 (Homo sapiens (Human)), Q76G19; experiment: G' assay; note: key of the grades not given here
T8 chain: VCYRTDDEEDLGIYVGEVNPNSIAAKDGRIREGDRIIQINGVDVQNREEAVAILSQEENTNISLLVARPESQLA

[10] = target: T9, GST-DVL2 PDZ domain 1 (Homo sapiens (Human)), O14641; experiment: G' assay; note: key of the grades not given here
T9 chain: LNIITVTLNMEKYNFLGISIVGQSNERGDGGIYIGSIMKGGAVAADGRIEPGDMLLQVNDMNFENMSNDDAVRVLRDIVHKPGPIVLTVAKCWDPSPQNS

[11] = target: T10, GST-KIAA1719 PDZ domain 5 (Homo sapiens (Human)), Q9C0E4; experiment: G assay titration, PDZ 5 ug/ml
T10 chain: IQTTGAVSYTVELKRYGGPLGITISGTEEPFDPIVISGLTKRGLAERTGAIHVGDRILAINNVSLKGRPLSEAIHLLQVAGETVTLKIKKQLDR

[12] = target: T11, GST-AIPC PDZ domain 1 (Homo sapiens (Human)), O15018; experiment: G assay titration, PDZ 5 ug/ml
T11 chain: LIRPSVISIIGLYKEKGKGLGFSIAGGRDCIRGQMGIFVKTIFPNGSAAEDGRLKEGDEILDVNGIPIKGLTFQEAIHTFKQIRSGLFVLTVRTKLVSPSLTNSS

[13] = target: T12, GST-MUPP1 PDZ domain 3 (Homo sapiens (Human)), O75970; experiment: G assay titration, PDZ 5 ug/ml
T12 chain: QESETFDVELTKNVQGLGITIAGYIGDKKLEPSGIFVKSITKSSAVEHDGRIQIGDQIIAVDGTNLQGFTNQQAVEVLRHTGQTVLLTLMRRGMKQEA

[14] = target: T13, GST-MINT1 PDZ domains 1, 2, Q02410; experiment: G assay titration, PDZ 5 ug/ml
T13 chain: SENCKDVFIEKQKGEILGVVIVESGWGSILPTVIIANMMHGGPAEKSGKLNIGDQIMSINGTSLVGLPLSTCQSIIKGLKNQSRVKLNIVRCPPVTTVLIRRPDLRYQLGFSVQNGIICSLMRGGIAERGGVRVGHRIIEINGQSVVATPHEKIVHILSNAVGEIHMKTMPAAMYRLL

[15] = target: T14, GST-MUPP1 PDZ domain 9 (Homo sapiens (Human)), O75970; experiment: G assay titration, PDZ 5 ug/ml
T14 chain: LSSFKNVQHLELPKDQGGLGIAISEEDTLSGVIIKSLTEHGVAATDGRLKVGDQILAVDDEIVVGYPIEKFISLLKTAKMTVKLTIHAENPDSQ

[16] = target: T15, GST-INADL PDZ domain 3 (Homo sapiens (Human)), Q8NI35; experiment: G assay titration, PDZ 5 ug/ml
T15 chain: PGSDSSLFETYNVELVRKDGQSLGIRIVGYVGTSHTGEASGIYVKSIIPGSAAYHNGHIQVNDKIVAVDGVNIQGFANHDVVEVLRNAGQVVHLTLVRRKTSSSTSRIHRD

[17] = target: T16, GST-KIAA1719 PDZ domain 6 (Homo sapiens (Human)), Q9C0E4; experiment: G assay titration, PDZ 5 ug/ml
T16 chain: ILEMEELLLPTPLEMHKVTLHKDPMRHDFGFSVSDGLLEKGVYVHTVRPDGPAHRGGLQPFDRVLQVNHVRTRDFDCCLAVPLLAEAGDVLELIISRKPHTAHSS

[18] = target: T17, GST-FLJ 10324 PDZ domain 1 [GST: P08515]; experiment: G assay titration, PDZ 5 ug/ml
T17 chain: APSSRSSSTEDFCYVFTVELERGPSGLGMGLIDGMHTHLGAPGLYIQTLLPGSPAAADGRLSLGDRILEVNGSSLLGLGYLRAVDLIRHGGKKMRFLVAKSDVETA

[19] = target: T18, GST-PICK1 PDZ domain 1 (Bos taurus (Bovine)), Q2T9M1; experiment: G assay titration, PDZ 5 ug/ml
T18 chain: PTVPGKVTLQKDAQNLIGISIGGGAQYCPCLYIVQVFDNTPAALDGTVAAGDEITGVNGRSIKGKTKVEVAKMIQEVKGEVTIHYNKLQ

[20] = target: T19, GST-ZO-1 PDZ domain 2 (Rattus norvegicus (Rat)), A0A0G2; experiment: G assay titration, PDZ 5 ug/ml
T19 chain: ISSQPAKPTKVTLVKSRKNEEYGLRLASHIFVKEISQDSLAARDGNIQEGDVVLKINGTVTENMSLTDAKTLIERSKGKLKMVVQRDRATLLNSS

[21] = target: T20, GST-GRIP 1 PDZ domain 6 (Mus musculus (Mouse)), Q925T6; experiment: G assay titration, PDZ 5 ug/ml
T20 chain: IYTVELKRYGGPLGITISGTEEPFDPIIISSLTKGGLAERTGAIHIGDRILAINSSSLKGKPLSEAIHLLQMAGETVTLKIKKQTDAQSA

[22] = target: T21, GST-MUPP1 PDZ domain 7 (Homo sapiens (Human)), O75970; experiment: G assay titration, PDZ 5 ug/ml
T21 chain: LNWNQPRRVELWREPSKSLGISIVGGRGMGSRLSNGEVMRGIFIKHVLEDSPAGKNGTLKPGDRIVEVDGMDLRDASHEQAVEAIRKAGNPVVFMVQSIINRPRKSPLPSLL

[23] = target: GST-PAR3 PDZ domain 3 (Homo sapiens (Human)), Q8TEW0; experiment: G assay titration, PDZ 1 ug/ml
Chain of GST-PAR3 PDZ domain 3 (Homo sapiens (Human)), Q8TEW0 (Q8TEW0 579-681): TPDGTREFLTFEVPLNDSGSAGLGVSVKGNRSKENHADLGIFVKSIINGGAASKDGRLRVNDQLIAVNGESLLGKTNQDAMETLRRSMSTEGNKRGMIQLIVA

[24] = target: T22, GST-KIAA0380 PDZ domain 1 (Homo sapiens (Human)), O15085; experiment: G' assay; note: key of the grades not given here
T22 chain: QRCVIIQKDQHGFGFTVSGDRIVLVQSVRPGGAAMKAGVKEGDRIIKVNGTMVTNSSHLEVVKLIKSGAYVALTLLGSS

[25] = target: T10, GST-KIAA1719 PDZ domain 5 (Homo sapiens …); experiment: G' assay; note: key of the grades not given here
[26] = target: T11, GST-AIPC PDZ domain 1 (Homo sapiens …); experiment: G' assay; note: key of the grades not given here
[27] = target: T12, GST-MUPP1 PDZ domain 3 (Homo sapiens …); experiment: G' assay; note: key of the grades not given here
[28] = target: GST-PAR3 PDZ domain 3 (Homo sapiens (Human)), Q8TEW0; experiment: G' assay; note: key of the grades not given here
[29] = target: T13, GST-MINT1 PDZ domains 1, 2, Q02410; experiment: G' assay; note: key of the grades not given here
[30] = target: T14, GST-MUPP1 PDZ domain 9 (Homo sapiens …); experiment: G' assay; note: key of the grades not given here
[31] = target: T15, GST-INADL PDZ domain 3 (Homo sapiens …); experiment: G' assay; note: key of the grades not given here
[32] = target: T16, GST-KIAA1719 PDZ domain 6 (Homo sapiens …); experiment: G' assay
[33] = target: T17, GST-FLJ 10324 PDZ domain 1 [GST: P08515]; experiment: G' assay
[34] = target: T18, GST-PICK1 PDZ domain 1 (Bos taurus …); experiment: G' assay
[35] = target: T19, GST-ZO-1 PDZ domain 2 (Rattus …); experiment: G' assay
[36] = target: T20, GST-GRIP 1 PDZ domain 6 (Mus musculus …); experiment: G' assay
[37] = target: T21, GST-MUPP1 PDZ domain 7 (Homo sapiens …); experiment: G' assay
[38] = target: T23, GST-MPP2 PDZ domain 1 (Homo sapiens (Human)), Q14168; experiment: G' assay; note: key of the grades not given here
T23 chain: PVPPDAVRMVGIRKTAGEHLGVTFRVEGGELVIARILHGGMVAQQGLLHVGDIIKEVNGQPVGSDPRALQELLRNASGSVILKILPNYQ

[39] = target: T24, GST-HEMBA 1003117 PDZ domain 1 (Homo sapiens (Human)), Q96JH8; experiment: G' assay; note: key of the grades not given here
T24 chain: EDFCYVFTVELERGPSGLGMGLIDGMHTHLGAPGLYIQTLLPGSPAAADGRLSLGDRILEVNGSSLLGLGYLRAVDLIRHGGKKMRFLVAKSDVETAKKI

Classification [1]: 5 A450 class
Classification [2]: 3 A450 class
Classification [3]: 1 A450 class
Classification [4]: 3 A450 class
Classification [5]: 3 A450 class
Classification [6]: 3 A450 class
Classification [7]: 5 A450 class
Classification [8]: 3 A450 class
Classification [9]: 4 A450 class
Classification [10]: 3 A450 class
Binder: DFRPSFKHILFRRARRGFRQ (modifications not checked) [alpha-2C Adrenergic receptor]

Kd [11]: 1000 nM
Kd [12]: 600 nM
Kd [13]: 400 nM
Kd [14]: 500 nM
Kd [15]: 700 nM
Kd [16]: 600 nM
Kd [17]: 800 nM
Kd [18]: 600 nM
Kd [19]: 1000 nM
Kd [20]: 400 nM
Kd [21]: 500 nM
Kd [22]: 800 nM
Kd [23]: 600 nM
Classification [24]: 1 A450 class
Classification [25]: 2 A450 class
Classification [26]: 2 A450 class
Classification [27]: 4 A450 class
Classification [28]: 4 A450 class
Classification [29]: 3 A450 class
Classification [30]: 3 A450 class
Classification [31]: 3 A450 class
Classification [32]: 2 A450 class
Classification [33]: 3 A450 class
Classification [34]: 1 A450 class
Classification [35]: 2 A450 class
Classification [36]: 2 A450 class
Classification [37]: 3 A450 class
Binder: HHLVAQRDIRQFQLQHWLAI (modifications not checked) [noradrenaline transporter]

Classification [38]: 2 A450 class
Classification [39]: 2 A450 class
Classification [7]: 2 A450 class
Binder: LAVLAYSITLVMLWSIWQYA (modifications not checked) [Serotonin receptor 3a]
